Test system: Escherichia coli TOP10
Experiment: shrunken log2 fold change of peptide-encoding DNA abundance (4.5 h post-induction vs induction); higher = less antimicrobial activity (less host growth inhibition)
Conditions: time post-induction: 4.5 h; library: site-saturation at positions 5, 18, 19, 20
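Note: peptides expressed intracellularly from a pBAD plasmid library in pooled LB shake-flask culture, induced with 0.3% L-arabinose, DNA abundance read by NGS, three biological replicates, DESeq2 with apeglm shrinkage.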

Sequence | shrunken log2 fold change
RRIRVRPPRLPRPRPRPQKEPRP | -0.178
RRIRMRPPRLPRPRPRPHGPPRP | 0.752
RRIRRRPPRLPRPRPRPPSKPRP | 0.172
RRIRDRPPRLPRPRPRPYLEPRP | -0.0399
RRIRSRPPRLPRPRPRPHYVPRP | -0.488
RRIRIRPPRLPRPRPRPQYQPRP | -0.769
RRIRDRPPRLPRPRPRPVFQPRP | -0.134
RRIRYRPPRLPRPRPRPIHEPRP | 0.00548
RRIRERPPRLPRPRPRPCWFPRP | -0.0254
RRIRPRPPRLPRPRPRPEEFPRP | -0.0108
RRIRTRPPRLPRPRPRPYTDPRP | -0.448
RRIRERPPRLPRPRPRPRPRPRP | 0.723
RRIRVRPPRLPRPRPRPRMRPRP | 0.873
RRIRLRPPRLPRPRPRPYSEPRP | -1.71
RRIRIRPPRLPRPRPRPMMVPRP | -0.00145
RRIRNRPPRLPRPRPRPQATPRP | 0.991
RRIRKRPPRLPRPRPRPMIFPRP | -0.132
RRIRERPPRLPRPRPRPYWSPRP | -0.568
RRIRYRPPRLPRPRPRPLWFPRP | -0.494
RRIRPRPPRLPRPRPRPISVPRP | -0.171
RRIRNRPPRLPRPRPRPCSCPRP | -0.0018
RRIRYRPPRLPRPRPRPEDVPRP | -0.00968
RRIRARPPRLPRPRPRPTKAPRP | 0.437
RRIRYRPPRLPRPRPRPDVPPRP | -0.0784
RRIRARPPRLPRPRPRPSSLPRP | 0.00294

Sequence | shrunken log2 fold change
RRIRTRPPRLPRPRPRPPCGPRP | 0.4
RRIRYRPPRLPRPRPRPDNHPRP | -0.135
RRIRTRPPRLPRPRPRPQVHPRP | -0.221
RRIRERPPRLPRPRPRPCNNPRP | -0.768
RRIRGRPPRLPRPRPRPVGAPRP | 1.13
RRIRGRPPRLPRPRPRPVFVPRP | 0.324
RRIRWRPPRLPRPRPRPRSVPRP | 0.247
RRIRQRPPRLPRPRPRPSTGPRP | -0.0811
RRIRDRPPRLPRPRPRPFVYPRP | -0.344
RRIRFRPPRLPRPRPRPCLNPRP | -0.244
RRIRFRPPRLPRPRPRPNVIPRP | -0.173
RRIRYRPPRLPRPRPRPDENPRP | -0.0185
RRIRERPPRLPRPRPRPFTPPRP | 0.116
RRIRFRPPRLPRPRPRPSMAPRP | 0.0143
RRIRSRPPRLPRPRPRPLKMPRP | 0.127
RRIRKRPPRLPRPRPRPKRCPRP | 0.309
RRIRERPPRLPRPRPRPYGVPRP | -0.128
RRIRARPPRLPRPRPRPSFPPRP | -0.0947
RRIRSRPPRLPRPRPRPMWGPRP | -0.0451
RRIRQRPPRLPRPRPRPFYNPRP | -0.739
RRIRERPPRLPRPRPRPAMHPRP | 0.0193
RRIRQRPPRLPRPRPRPCPTPRP | -0.13
RRIRGRPPRLPRPRPRPGFLPRP | 0.41
RRIRERPPRLPRPRPRPDPHPRP | -0.011
RRIRLRPPRLPRPRPRPYNHPRP | -0.669

Sequence | shrunken log2 fold change
RRIRERPPRLPRPRPRPHNRPRP | -0.0587
RRIRMRPPRLPRPRPRPNIMPRP | -0.466
RRIRARPPRLPRPRPRPFTWPRP | -0.193
RRIRYRPPRLPRPRPRPYSEPRP | -0.199
RRIRYRPPRLPRPRPRPGWSPRP | -0.135
RRIRFRPPRLPRPRPRPIKKPRP | 0.0144
RRIRNRPPRLPRPRPRPIGAPRP | 0.235
RRIRVRPPRLPRPRPRPAMKPRP | -0.187
RRIRFRPPRLPRPRPRPGCMPRP | -0.178
RRIRQRPPRLPRPRPRPKITPRP | -0.0282
RRIRWRPPRLPRPRPRPLAPPRP | 0.664
RRIRDRPPRLPRPRPRPVHDPRP | 0.19
RRIRCRPPRLPRPRPRPSHCPRP | -0.393
RRIRLRPPRLPRPRPRPVNHPRP | 0.197
RRIRVRPPRLPRPRPRPNTNPRP | -0.421
RRIRIRPPRLPRPRPRPRPPPRP | 0.635
RRIRERPPRLPRPRPRPNTAPRP | 0.0197
RRIRQRPPRLPRPRPRPFAGPRP | 0.0242
RRIRCRPPRLPRPRPRPTMNPRP | -0.421
RRIRARPPRLPRPRPRPGNGPRP | 0.275
RRIRWRPPRLPRPRPRPYSPPRP | -1.1
RRIRYRPPRLPRPRPRPHRSPRP | -0.017
RRIRQRPPRLPRPRPRPGDNPRP | -0.203
RRIRVRPPRLPRPRPRPSGQPRP | 0.0937
RRIRTRPPRLPRPRPRPFWSPRP | -0.178

Sequence | shrunken log2 fold change
RRIRTRPPRLPRPRPRPQYNPRP | -0.856
RRIRCRPPRLPRPRPRPSQIPRP | -0.698
RRIRWRPPRLPRPRPRPYNIPRP | -0.243
RRIRSRPPRLPRPRPRPNLNPRP | -0.307
RRIRSRPPRLPRPRPRPGLPPRP | 0.225
RRIRPRPPRLPRPRPRPPPIPRP | 0.374
RRIRLRPPRLPRPRPRPIWQPRP | 0.0488
RRIRDRPPRLPRPRPRPKISPRP | -0.203
RRIRMRPPRLPRPRPRPYPMPRP | -0.126
RRIRNRPPRLPRPRPRPQGGPRP | -0.28
RRIRGRPPRLPRPRPRPPETPRP | 1.24
RRIRERPPRLPRPRPRPLCSPRP | -0.512
RRIRLRPPRLPRPRPRPHVWPRP | 0.198
RRIRERPPRLPRPRPRPWNYPRP | -0.00131
RRIRCRPPRLPRPRPRPPKHPRP | 0.203
RRIRKRPPRLPRPRPRPGSSPRP | -0.0653
RRIRCRPPRLPRPRPRPEDQPRP | 1.21
RRIRSRPPRLPRPRPRPWHNPRP | -0.00544
RRIRKRPPRLPRPRPRPPMSPRP | 0.328
RRIRHRPPRLPRPRPRPQTKPRP | -0.0667
RRIRYRPPRLPRPRPRPNWLPRP | -0.226
RRIRIRPPRLPRPRPRPRANPRP | 0.0386
RRIRVRPPRLPRPRPRPMCMPRP | 0.0119
RRIRMRPPRLPRPRPRPKLTPRP | 1.14
RRIRMRPPRLPRPRPRPTMSPRP | -0.148

Sequence | shrunken log2 fold change
RRIRNRPPRLPRPRPRPRHIPRP | -0.0233
RRIRSRPPRLPRPRPRPDKYPRP | -0.845
RRIRGRPPRLPRPRPRPCRRPRP | 0.117
RRIRKRPPRLPRPRPRPLQVPRP | 0.333
RRIRIRPPRLPRPRPRPSILPRP | -0.878
RRIRTRPPRLPRPRPRPHCQPRP | -0.359
RRIRERPPRLPRPRPRPLDYPRP | -0.163
RRIRERPPRLPRPRPRPYCNPRP | -0.143
RRIRKRPPRLPRPRPRPWDCPRP | 0.121
RRIRHRPPRLPRPRPRPYAQPRP | -0.279
RRIRYRPPRLPRPRPRPLMIPRP | -1.73
RRIRYRPPRLPRPRPRPKCSPRP | -0.433
RRIRHRPPRLPRPRPRPPCCPRP | -0.0551
RRIRNRPPRLPRPRPRPCTNPRP | 0.00408
RRIRYRPPRLPRPRPRPHRIPRP | -0.474
RRIRDRPPRLPRPRPRPQWRPRP | 0.21
RRIRTRPPRLPRPRPRPFHDPRP | 0.0356
RRIRNRPPRLPRPRPRPNVGPRP | -0.183
RRIRERPPRLPRPRPRPIFFPRP | 0.0602
RRIRLRPPRLPRPRPRPFWCPRP | -0.0123
RRIRLRPPRLPRPRPRPREKPRP | 0.15
RRIRYRPPRLPRPRPRPFGRPRP | -0.0018
RRIRGRPPRLPRPRPRPMMAPRP | 1.38
RRIRCRPPRLPRPRPRPTIWPRP | 0.105
RRIRPRPPRLPRPRPRPYGAPRP | -0.306

— the supplement of paper PMC9112550, “Optimization of the antimicrobial peptide Bac7 by deep mutational scanning” (BMC Biology, 2022)
